Assay in all cases: Luminex, myc-captured LEPR protein on beads, Ab 0.5 µg/mL
Assay [1] addresses T1, human LEPR CRH2-MMH (human, UniProt P48357 428-634, limits assumed).
T1 construct: domain: CRH2; Transiently expressed, captured from supernatant on anti-myc beads
T1 sequence (looked up): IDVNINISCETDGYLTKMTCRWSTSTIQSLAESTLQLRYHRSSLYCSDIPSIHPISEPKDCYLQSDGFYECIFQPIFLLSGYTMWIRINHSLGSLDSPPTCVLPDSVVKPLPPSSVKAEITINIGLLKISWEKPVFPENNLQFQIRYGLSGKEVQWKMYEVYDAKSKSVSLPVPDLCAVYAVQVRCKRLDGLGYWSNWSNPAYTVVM
The method, then: (§1) Aliquots of microspheres with immobilized anti-myc monoclonal antibodies, prepared as described above, were added individually to 1 mL of the each of these protein supernatants. The microspheres were gently mixed, incubated for two hours at 25° C., washed twice with 1 mL of DBPS, centrifuged to remove the supernatant and finally resuspended in 1 mL of DPBS buffer. Forty eight μL of anti-myc IgG coupled microspheres from individual reactions with full length human LEPR and with each of the human LEPR domain proteins were withdrawn and mixed together in 3.6 mL of PBS+20 mg/mL BSA+0.05% sodium azide (blocking buffer).
(§2) From this mixed pool, 75 μL of microspheres were plated per well on a 96 well filter plate (Millipore, Cat. No: MSBVN1250) and mixed with 25 μL of individual anti-human LEPR monoclonal antibodies (0.5 or 5 μg/mL), incubated for two hours at 25° C. and then washed twice with 200 μL of DPBS with 0.05% Tween 20 (washing buffer). […] After 30 minutes, the samples were washed twice with 200 μL of washing buffer and resuspended in 150 μL of wash buffer. The Median Fluorescence intensity (MFI) of the microspheres was measured in a Luminex Analyzer.

Assay [2] addresses T2, human LEPR CRH1 (D1)-MMH (human, UniProt P48357 22-229, limits assumed).
T2 construct: domain: CRH1 (D1); Transiently expressed, captured from supernatant on anti-myc beads
T2 sequence (looked up): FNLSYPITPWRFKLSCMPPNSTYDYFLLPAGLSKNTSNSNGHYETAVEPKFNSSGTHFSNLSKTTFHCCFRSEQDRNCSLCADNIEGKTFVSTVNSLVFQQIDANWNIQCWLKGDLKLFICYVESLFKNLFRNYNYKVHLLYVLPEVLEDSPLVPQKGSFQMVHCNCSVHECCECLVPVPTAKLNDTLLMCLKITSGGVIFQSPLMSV
The protocol:
as §1, §2

For assay [3], the target named is T3, human LEPR Ig-CRH2-FNIII-MMH (human, UniProt P48357 330-839, limits assumed).
T3 construct: domain: Ig-CRH2-FNIII; Transiently expressed, captured from supernatant on anti-myc beads
T3 sequence (looked up): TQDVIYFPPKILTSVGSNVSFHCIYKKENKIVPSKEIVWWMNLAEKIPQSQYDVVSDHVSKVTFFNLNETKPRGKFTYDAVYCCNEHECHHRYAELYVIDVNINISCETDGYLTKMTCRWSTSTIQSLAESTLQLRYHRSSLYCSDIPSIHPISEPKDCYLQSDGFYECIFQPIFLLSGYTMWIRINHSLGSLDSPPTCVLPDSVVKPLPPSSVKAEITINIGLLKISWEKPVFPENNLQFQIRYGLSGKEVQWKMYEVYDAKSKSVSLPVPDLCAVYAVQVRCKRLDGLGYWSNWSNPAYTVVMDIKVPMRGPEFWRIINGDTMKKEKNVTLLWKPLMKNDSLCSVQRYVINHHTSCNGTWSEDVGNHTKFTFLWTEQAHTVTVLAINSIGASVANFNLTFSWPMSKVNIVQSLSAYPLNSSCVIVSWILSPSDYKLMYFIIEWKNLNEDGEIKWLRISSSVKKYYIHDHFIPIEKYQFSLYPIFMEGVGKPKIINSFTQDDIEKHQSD
The protocol: as §1, §2

Assay [4] concerns the target T4, recombinant human LEPR extracellular domain expressed with a C-terminal myc-myc-hexahistidine tag (human, UniProt P48357 22-839).
T4 construct: Monomeric construct; also called hLEPR.MMH; hLEPR-MMH
The method, then: as §1, §2

Assay [5] addresses T5, human LEPR CRH1-Ig (D2,D3)-MMH (human, UniProt P48357 230-427, limits assumed).
T5 construct: domain: CRH1-Ig (D2,D3); Transiently expressed, captured from supernatant on anti-myc beads
T5 sequence (looked up): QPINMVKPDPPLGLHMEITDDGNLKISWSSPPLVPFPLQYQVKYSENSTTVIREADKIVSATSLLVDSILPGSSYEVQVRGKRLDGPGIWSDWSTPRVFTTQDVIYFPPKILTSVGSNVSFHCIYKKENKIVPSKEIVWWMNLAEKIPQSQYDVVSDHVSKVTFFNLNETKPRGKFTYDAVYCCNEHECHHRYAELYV
The protocol: as §1, §2

The target of assay [6] is T6, human LEPR Ig (D3)-MMH (human, UniProt P48357 340-427, limits assumed).
T6 construct: domain: Ig (D3); Transiently expressed, captured from supernatant on anti-myc beads
T6 sequence (looked up): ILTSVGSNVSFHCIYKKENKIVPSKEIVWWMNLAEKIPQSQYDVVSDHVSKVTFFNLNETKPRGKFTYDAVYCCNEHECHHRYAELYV
The protocol: as §1, §2

The source of these data is patent US20200123264A1 (Regeneron, published 2020).

B1: H4H18462P2 (antibody, human IgG4, V domains shown)
VH: EVQLVESGGDLVQPGRSLRLSCAASGFTFSSFAMSWVRQAPGRGLEWVSSLSDSGDNTYYADSVKGRFTISRDNSKNTLYLQMNNLRAEDTAVYYCAKDLFSGWLFHGFDVWGQGTMVTVSS
VL: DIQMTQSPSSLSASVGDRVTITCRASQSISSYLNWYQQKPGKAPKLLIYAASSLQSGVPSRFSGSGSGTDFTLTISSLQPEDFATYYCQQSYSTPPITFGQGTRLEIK
notes: H4H prefix: human IgG4 Fc
As for B1, the “Luminex MFI” value in assay [1] was determined as 8 MFI; in assay [2], 615 MFI; in assay [3], 11200 MFI; in assay [4] it was 3610 MFI; in assay [5] it was 25 MFI; in assay [6] it was 10 MFI.
